{"source": "the nanobody polyreactivity screen of Harvey et al. (2022)", "data": [{"assay": "yeast display, Sf9 membrane polyspecificity reagent, FACS + sequencing; frameworks hold sequencing errors", "outline": "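Polyreactivity labels are assigned by the sorting gate from which each nanobody was recovered. The gates were low and high (top ~1%), set on anti-HA fluorescence for expression and streptavidin fluorescence for reagent binding. Before sorting, galactose-induced (36–48 hours) yeast display cells were stained for 1 hour at 4 °C with 10% biotinylated, detergent-solubilized Sf9 membrane reagent.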", "values": [{"sequence": "QVQLVESGGGLVQAGGSLRLICAASGRTFNWNAMGWYRQAPGKERELVAAITSGGNTYYADSVKGRFTISRDNAKNTVYLQMNSLKPEDTAVYYCAKVTYEGGYRYNYWGQGTQVTVSS", "polyreactivity (PSR sort gate)": "high polyreactivity"}, {"sequence": "QVQLVESGGGLVQAGGSLRLICAASGRTFQYYAMGWYRQAPGKERELVAAITSGGSTYYADSVKGRFTISRDNAKNTVYLQMNSLKPEDTAVYYCAATFYYSGHDDYWGQGTQVTVSS", "polyreactivity (PSR sort gate)": "low polyreactivity"}, {"sequence": "QVQLVESGGGLVQAGGSLRLICAASGRTFRSYAMGWYRQAPGKERELVAAISWSGGSTYYADSVKGRFTISRDNAKNTVYLQMNSLKPVDTAVYYCAAEVYYTYVYILDYWGQGTQVTVSS", "polyreactivity (PSR sort gate)": "high polyreactivity"}, {"sequence": "QVQLVESGGGLVQAGGSLRLICAASGRTFSVNDMGWYRQAPGKERELVAAISFSGGSTYYADSVKGRFTISRDNAKNTVYLQMNSLKPEDTAVYYCAAEAYPSWFYVITGFGIYDYWGQGTQVTVSS", "polyreactivity (PSR sort gate)": "high polyreactivity"}, {"sequence": "QVQLVESGGGLVQAGGSLRLICAASGRTFSYYAMGWYRQAPGKERELVATIRFSGGGTYYADSVKGRFTISRDNAKNTVYLQMNSLKPEDTAVYYCNADSIDPFLYDYWGQGTQVTVSS", "polyreactivity (PSR sort gate)": "low polyreactivity"}, {"sequence": "QVQLVESGGGLVQAGGSLRLICAASGRTFVPYAMGWYRQAPGKERELVAAINSGGSTYYADSVKGRFTSSRDNAKNTVYLQMNSLKPADTAVYDCAAEYWNSRFSYAYGYWGQGTQVTVSS", "polyreactivity (PSR sort gate)": "high polyreactivity"}, {"sequence": "QVQLVESGGGLVQAGGSLRLICAASGRTFVYNTMGWYRQAPGKERELVAAITDRGTSTYYADSVKGRFTISRDNAKNPVYLLLNSLNPEDTAVYYWAKDWLVTEFDYWGQGTQVTVSS", "polyreactivity (PSR sort gate)": "low polyreactivity"}, {"sequence": "QVQLVESGGGLVQAGGSLRLICAASGRTFWSYARGWSRQAPGKERQLVAAIRTSDGITYYADSVKGRFTISRDTAKNTVYLQMNSLKPEDTAVYYCAAENWYKYDYWGQGTQVTVSS", "polyreactivity (PSR sort gate)": "low polyreactivity"}, {"sequence": "QVQLVESGGGLVQAGGSLRLICAASGRTFYVYAMGWYRQAPGKEREFVARITSNGGSTTYADSVKGRFTISRDNAKNTVYLQMNSLKPDDTAVYYCNADYDPEDMDYWGQGTQVTVSS", "polyreactivity (PSR sort gate)": "low polyreactivity"}, {"sequence": "QVQLVESGGGLVQAGGSLRLICAASGRTFYYYAIGWYRQAPGKERELVASISYSAGRTYADSVKGRFTSSRDNAKNTVYLQMNSLKPEDTAVYYCNSDVTTVPYTNDYWGQGTQVTVSS", "polyreactivity (PSR sort gate)": "high polyreactivity"}, {"sequence": "QVQLVESGGGLVQAGGSLRLICAASGRTIWSNAMGRYRHAPGKEWEFVAGISQDGTSRYYADSVKGRFTISRDNAKNTVYLQMNSLKPEDTAVYYCAARSSFRRRSGPTPYGFDYWGQGTQVTVSS", "polyreactivity (PSR sort gate)": "high polyreactivity"}, {"sequence": "QVQLVESGGGLVQAGGSLRLICAASGRTLWSNAMGWYRQAPGKEMELFATISRGGGSTSYADSVKGRFTISRYNAKKTVYLQLYSLKPEDTSVYYCNNYPYIQRTWWYDYWGQGTQVTVSS", "polyreactivity (PSR sort gate)": "high polyreactivity"}, {"sequence": "QVQLVESGGGLVQAGGSLRLICAASGRTSYIDAMGWYREAPGKERELVARIRSGGSTNYADSVKGRFTISRDNAKNPVYVQMNSLKPEDTAVYYCNADFAFSRKYQANPYSAYDYWGQGTQVTVSS", "polyreactivity (PSR sort gate)": "high polyreactivity"}, {"sequence": "QVQLVESGGGLVQAGGSLRLICAASGSIFARYAMGWYRQAPGKERELVAAITGRGGSTYYADSVKGRFTISRDNAKNTVYLQMNSLKPEDTAVYYCNAVGHTSIRRALDILDYWGQGTQVTVSS", "polyreactivity (PSR sort gate)": "high polyreactivity"}, {"sequence": "QVQLVESGGGLVQAGGSLRLICAASGSIFCYAMGWYRQAPGKERELVAGISRGGSTYYADSVKGRFTISRDNAKNTGYLKMNSLKPEDTAVYYCNTAGYYGTPYNYWGQGTQVTVSS", "polyreactivity (PSR sort gate)": "low polyreactivity"}, {"sequence": "QVQLVESGGGLVQAGGSLRLICAASGSIFDYYTRGWYRQAPGKERELVASITQSGGSTYYADSVKGRFTISRDNGKNTVYLQMNSLKPEDTAVYYCAADFSIVKMDYWGQGTQVTVSS", "polyreactivity (PSR sort gate)": "low polyreactivity"}, {"sequence": "QVQLVESGGGLVQAGGSLRLICAASGSIFGHNAMGWYRQAPGKERELVAAISRGTRTNYADSVKGRFTISRDNEKNTVYLQMNSLKPEDTAVYYCNLQPGRGPYVGRKYGYWGQGTQVTVSS", "polyreactivity (PSR sort gate)": "high polyreactivity"}, {"sequence": "QVQLVESGGGLVQAGGSLRLICAASGSIFGSNAMGWYRQAPGKEREFVAVITWRVGDTYYADSVKGRFTISRDNAKNTVYLQMKSLKPEDTAVYYCNVDWKVYGAPDYRIAWKYDYWGQGTQVTVSS", "polyreactivity (PSR sort gate)": "low polyreactivity"}, {"sequence": "QVQLVESGGGLVQAGGSLRLICAASGSIFGVYAMGWYSQAPGKERELVATITRGGSTYYADSVKGRFTISRDNAKNTGYLQMNSLKPEDTSVYYGARAPVYFRHKYYYWGQGTQVTVSS", "polyreactivity (PSR sort gate)": "high polyreactivity"}, {"sequence": "QVQLVESGGGLVQAGGSLRLICAASGSIFLTNAMGWYRQAPGKEREFVAAIDWGCTITYYADSVKGRFTISRDNAKNTVYLQMNSLKPEDTAVYYCGADPTYPYGYWGQGTQVSVSS", "polyreactivity (PSR sort gate)": "low polyreactivity"}, {"sequence": "QVQLVESGGGLVQAGGSLRLICAASGSIFNAYAMGWYRQAPGKEREFVAAITGGGTYYADSVKGRFTISRDNAKNTVYLQMNSLKPEDTAVYYCNADYGTSRHTFWDYESWGQGTQVTVSS", "polyreactivity (PSR sort gate)": "low polyreactivity"}, {"sequence": "QVQLVESGGGLVQAGGSLRLICAASGSIFNGYAMGWYSQAPGKERELVADIRSGGSTYYADSVKGRFTISRDNAKNTVYLQMNSLKPEDTAVYYCAADTITDGYDYWGQGTQVTVSS", "polyreactivity (PSR sort gate)": "low polyreactivity"}, {"sequence": "QVQLVESGGGLVQAGGSLRLICAASGSIFNGYVMGWYRQAPGKERELVASINRGGTTNYADSVKGRFTISRDNAKNTVYLLMNSLKPEETAVYYCAVDDDANSLGGYYVLFDYWGQGTQVTVSS", "polyreactivity (PSR sort gate)": "low polyreactivity"}, {"sequence": "QVQLVESGGGLVQAGGSLRLICAASGSIFPSYAMGWYRQAPGKERELVAAISVSGGRTYYADSVKGRFTISRDNAKYSVYLQMNSLKPEDTAVYYCATVGKQKYDAKYGYWGQGTQVTVSS", "polyreactivity (PSR sort gate)": "high polyreactivity"}, {"sequence": "QVQLVESGGGLVQAGGSLRLICAASGSIFRYYAMGWYRQAPGKERELVAVITRSSSTYYADSVKGRFTISRDNAKNTVYLQMNSLKPEDTAVYDCAARYRSGAAGYNYWGQGTQVTVSS", "polyreactivity (PSR sort gate)": "high polyreactivity"}, {"sequence": "QVQLVESGGGLVQAGGSLRLICAASGSIFSTNTKGWYRQAPGKERELVAAISISGGSTHYADSVKGRFTISRDNAKNPVYLQMNSLKPEYTAVYYCAADLWYYAYSYDYWGRGTQVTVSS", "polyreactivity (PSR sort gate)": "high polyreactivity"}, {"sequence": "QVQLVESGGGLVQAGGSLRLICAASGSIFSYYAMGWYIKAPGKERELVAVINSGGRTNYADSVKGRFTISRDNAKNTVYVQMNSLKPEDTAVYYCAAQCYFVERAGRYYRGEYWGQGTQVTVSS", "polyreactivity (PSR sort gate)": "high polyreactivity"}, {"sequence": "QVQLVESGGGLVQAGGSLRLICAASGSIFTYYAMGWYRQAPGKDRDLVAAINWSGGSTYYADSVKGRFTISRDNAKNTVYLQINSLNPEDTAVYYCSNDYYARRHSPRYDYWGQGTQVTVSS", "polyreactivity (PSR sort gate)": "low polyreactivity"}, {"sequence": "QVQLVESGGGLVQAGGSLRLICAASGSIFVNYAMGWYRQAPGKERELVAAITRSGGGTYYADSVKGRFTISRDNAKNTVYLQMNSLKPEVTAVYYCAARLGYAGNRDGYWGQGTQVTVSS", "polyreactivity (PSR sort gate)": "high polyreactivity"}, {"sequence": "QVQLVESGGGLVQAGGSLRLICAASGSIFYQNAMVGYRQAPGKERELVAAIRSRGGSTYYADSVKGRFTISRDNATNTVYLQMNSLKPEDTAVYYCNKLSRTTSYTYNYWGQGTQVTVSS", "polyreactivity (PSR sort gate)": "low polyreactivity"}, {"sequence": "QVQLVESGGGLVQAGGSLRLICAASGSIFYYYAMVWYRQAPGKERELVAAISSGGSTNYADSVKGRFTISRDNAKNTVYLQMNSLKPEDTAVYYCAADYRAQYVVWYTYDYWGQGTQVTVSS", "polyreactivity (PSR sort gate)": "low polyreactivity"}]}]}
